Data: the Human Domainome abundance scans (Beltran et al. 2025)
± gives the uncertainty stated by the source.

experiment: abundance fitness (aPCA) (normalised: wild type 0, dead -1); higher = more abundant; growth selection in yeast, the domain comes from the species named; details: Homo sapiens

Substance | abundance fitness
Scaffold attachment factor B2 N46A, Q14151 | -0.317 ± 0.076
Tyrosine-protein kinase Lck R89Q, P06239 | 0.125 ± 0.29
Scaffold attachment factor B2 R28D, Q14151 | 0.131 ± 0.081
Scaffold attachment factor B2 D37A, Q14151 | -0.513 ± 0.091
Tyrosine-protein kinase Lck E108T, P06239 | 0.034 ± 0.12
Scaffold attachment factor B2 K62M, Q14151 | -0.288 ± 0.19
Scaffold attachment factor B2 L47K, Q14151 | -0.246 ± 0.11
Scaffold attachment factor B2 K53C, Q14151 | -0.368 ± 0.081
Scaffold attachment factor B2 K44D, Q14151 | -0.549 ± 0.19
Scaffold attachment factor B2 K44T, Q14151 | -0.347 ± 0.1
Scaffold attachment factor B2 G51S, Q14151 | -0.597 ± 0.085
Scaffold attachment factor B2 K61R, Q14151 | -0.184 ± 0.095
Scaffold attachment factor B2 L56A, Q14151 | -0.374 ± 0.091
Scaffold attachment factor B2 A63M, Q14151 | -0.649 ± 0.13
Scaffold attachment factor B2 G50E, Q14151 | -0.119 ± 0.084
Scaffold attachment factor B2 V64H, Q14151 | -0.173 ± 0.1
Scaffold attachment factor B2 K43S, Q14151 | -0.057 ± 0.091
Tyrosine-protein kinase Lck I67E, P06239 | -0.146 ± 0.11
Scaffold attachment factor B2 M57D, Q14151 | -0.788 ± 0.18
Scaffold attachment factor B2 R28K, Q14151 | -0.033 ± 0.14
Scaffold attachment factor B2 R28W, Q14151 | -0.14 ± 0.086
Scaffold attachment factor B2 T27G, Q14151 | -0.128 ± 0.094

Substance | abundance fitness
Tyrosine-protein kinase Lck Q87R, P06239 | -0.01 ± 0.077
Scaffold attachment factor B2 M57E, Q14151 | -0.292 ± 0.11
Scaffold attachment factor B2 G50M, Q14151 | -0.114 ± 0.11
Scaffold attachment factor B2 G51T, Q14151 | -0.633 ± 0.1
Scaffold attachment factor B2 R34Y, Q14151 | -0.616 ± 0.12
Scaffold attachment factor B2 D37L, Q14151 | -0.9 ± 0.14
Scaffold attachment factor B2 N46G, Q14151 | 0.006 ± 0.084
Scaffold attachment factor B2 R45Q, Q14151 | -0.326 ± 0.091
Tyrosine-protein kinase Lck S71D, P06239 | -0.095 ± 0.14
Scaffold attachment factor B2 R45T, Q14151 | -0.576 ± 0.11
Scaffold attachment factor B2 D37C, Q14151 | -0.548 ± 0.12
Scaffold attachment factor B2 E58A, Q14151 | -0.129 ± 0.085
Scaffold attachment factor B2 T49L, Q14151 | -0.155 ± 0.089
Scaffold attachment factor B2 R28L, Q14151 | -0.176 ± 0.11
Scaffold attachment factor B2 K61A, Q14151 | 0.022 ± 0.084
Scaffold attachment factor B2 G50L, Q14151 | -0.194 ± 0.08
Scaffold attachment factor B2 R34V, Q14151 | -0.45 ± 0.087
Scaffold attachment factor B2 E67Y, Q14151 | -0.889 ± 0.34
Scaffold attachment factor B2 V64S, Q14151 | -0.242 ± 0.084
Scaffold attachment factor B2 L47M, Q14151 | -0.265 ± 0.13
Scaffold attachment factor B2 V64F, Q14151 | -0.326 ± 0.12
Scaffold attachment factor B2 G51V, Q14151 | -0.729 ± 0.084

Substance | abundance fitness
Scaffold attachment factor B2 K44S, Q14151 | -0.183 ± 0.083
Scaffold attachment factor B2 G50R, Q14151 | 0.05 ± 0.079
Scaffold attachment factor B2 L60K, Q14151 | -0.204 ± 0.14
Scaffold attachment factor B2 A40T, Q14151 | -0.561 ± 0.17
Scaffold attachment factor B2 K44C, Q14151 | -0.48 ± 0.12
Scaffold attachment factor B2 N46H, Q14151 | -0.432 ± 0.16
Scaffold attachment factor B2 V35R, Q14151 | -0.438 ± 0.067
Scaffold attachment factor B2 K62C, Q14151 | -0.303 ± 0.12
Tyrosine-protein kinase Lck S75R, P06239 | -0.064 ± 0.081
Scaffold attachment factor B2 L38A, Q14151 | -0.316 ± 0.077
Scaffold attachment factor B2 K65Y, Q14151 | -0.35 ± 0.16
Scaffold attachment factor B2 E58N, Q14151 | -0.201 ± 0.099
Scaffold attachment factor B2 D70K, Q14151 | -0.337 ± 0.29
Scaffold attachment factor B2 S54I, Q14151 | -0.003 ± 0.21
Scaffold attachment factor B2 G50S, Q14151 | -0.077 ± 0.11
Scaffold attachment factor B2 R28N, Q14151 | -0.005 ± 0.15
Scaffold attachment factor B2 K65Q, Q14151 | -0.309 ± 0.28
Scaffold attachment factor B2 D48W, Q14151 | -0.757 ± 0.087
Scaffold attachment factor B2 G51D, Q14151 | -0.7 ± 0.14
Scaffold attachment factor B2 D37M, Q14151 | -1 ± 0.21
Scaffold attachment factor B2 R59T, Q14151 | -0.223 ± 0.15
Scaffold attachment factor B2 M57P, Q14151 | -0.66 ± 0.093

Substance | abundance fitness
Scaffold attachment factor B2 K65L, Q14151 | -0.205 ± 0.1
Scaffold attachment factor B2 D70H, Q14151 | -0.197 ± 0.13
Scaffold attachment factor B2 R59N, Q14151 | -0.623 ± 0.32
Tyrosine-protein kinase Lck G81S, P06239 | -0.096 ± 0.078
Scaffold attachment factor B2 L30M, Q14151 | -0.036 ± 0.12
Scaffold attachment factor B2 S54G, Q14151 | -0.101 ± 0.071
Scaffold attachment factor B2 N52L, Q14151 | -0.511 ± 0.081
Scaffold attachment factor B2 G51R, Q14151 | -0.794 ± 0.072
Scaffold attachment factor B2 L33W, Q14151 | -0.103 ± 0.096
Scaffold attachment factor B2 V55M, Q14151 | -0.02 ± 0.23
Scaffold attachment factor B2 A40R, Q14151 | -0.368 ± 0.13
Tyrosine-protein kinase Lck P74A, P06239 | -0.414 ± 0.1
Scaffold attachment factor B2 V35H, Q14151 | -0.57 ± 0.12
Scaffold attachment factor B2 A40P, Q14151 | -0.433 ± 0.22
Scaffold attachment factor B2 R34A, Q14151 | 0.049 ± 0.079
Scaffold attachment factor B2 Q69T, Q14151 | -0.261 ± 0.12
Scaffold attachment factor B2 M57A, Q14151 | -0.454 ± 0.087
Scaffold attachment factor B2 S54T, Q14151 | 0.073 ± 0.11
Scaffold attachment factor B2 N46T, Q14151 | -0.444 ± 0.099
Scaffold attachment factor B2 K61C, Q14151 | -0.303 ± 0.15
Scaffold attachment factor B2 K65W, Q14151 | -0.269 ± 0.12
Scaffold attachment factor B2 N52A, Q14151 | -0.132 ± 0.088

Substance | abundance fitness
Scaffold attachment factor B2 G50W, Q14151 | -0.26 ± 0.089
Scaffold attachment factor B2 R59M, Q14151 | -0.643 ± 0.12
Scaffold attachment factor B2 L42G, Q14151 | -0.439 ± 0.07
Scaffold attachment factor B2 D37V, Q14151 | -0.651 ± 0.088
Scaffold attachment factor B2 K43I, Q14151 | -0.599 ± 0.17
Scaffold attachment factor B2 R29C, Q14151 | -0.474 ± 0.31
Scaffold attachment factor B2 R34D, Q14151 | -0.055 ± 0.12
Scaffold attachment factor B2 N52Q, Q14151 | -0.63 ± 0.31
Scaffold attachment factor B2 K62Y, Q14151 | -0.447 ± 0.37
Scaffold attachment factor B2 S31N, Q14151 | -0.027 ± 0.11
Scaffold attachment factor B2 N46R, Q14151 | -0.358 ± 0.073
Scaffold attachment factor B2 K62P, Q14151 | -0.407 ± 0.2
Scaffold attachment factor B2 G50T, Q14151 | -0.096 ± 0.17
Scaffold attachment factor B2 L30D, Q14151 | -0.086 ± 0.15
Scaffold attachment factor B2 A63C, Q14151 | -0.235 ± 0.19
Scaffold attachment factor B2 L60P, Q14151 | -0.102 ± 0.14
Scaffold attachment factor B2 A40M, Q14151 | 0.613 ± 0.36
Scaffold attachment factor B2 D37T, Q14151 | -0.597 ± 0.089
Scaffold attachment factor B2 N52E, Q14151 | 0.123 ± 0.11
Tyrosine-protein kinase Lck I67D, P06239 | -0.506 ± 0.21
Scaffold attachment factor B2 G50V, Q14151 | -0.015 ± 0.08
Scaffold attachment factor B2 K53R, Q14151 | -0.047 ± 0.085
